Read-outs that look alike come from different tables or passages of the source.
Columns and labels:
[1] = target: transmembrane proteins of the replication complex; experiment: cell-based or functional assay
[2] = target: transmembrane proteins of the replication complex; experiment: cell-based or functional assay; remark: listed apart in the source

DEN2 NS1 F160A (from UniProt P29990 776-1127)
Plaque size [1]: 1 mm | Titer (PFU/mL) [1]: 6000 PFU/mL

B1: Dengue virus type 2 (DEN2; 16681) nonstructural protein 1 (NS1), recombinant, full-length, glycosylated, P29990 776-1127 (protein)
chain: DSGCVVSWKNKELKCGSGIFITDNVHTWTEQYKFQPESPSKLASAIQKAHEEGICGIRSVTRLENLMWKQITPELNHILSENEVKLTIMTGDIKGIMQAGKRSLRPQPTELKYSWKTWGKAKMLSTESHNQTFLIDGPETAECPNTNRAWNSLEVEDYGFGVFTTNIWLKLKEKQDVFCDSKLMSAAIKDNRAVHADMGYWIESALNDTWKIEKASFIEVKNCHWPKSHTLWSNGVLESEMIIPKNLAGPVSQHNYRPGYHTQITGPWHLGKLEMDFDFCDGTTVVVTEDCGNRGPSLRTTTASGKLITEWCCRSCTLPPLRYRGEDGCWYGMEIRPLKEKEENLVNSLVTA
Plaque size [2]: 3 mm | Titer (PFU/mL) [2]: 4.8e+06 PFU/mL
